Consider 2 proteins from PMC5940873, “NADH/NADPH bi-cofactor-utilizing and thermoactive ketol-acid reductoisomerase from Sulfolobus acidocaldarius” (Scientific Reports, 2018).

Data set [1] deals with the molecule itself. Nature of the data set: SEC; gel filtration on HiLoad 16/600 Superdex 200 pg, in the presence of 2 mM Mg2+. (SEC sorts molecules by how far they enter the pores of the column.)
Data set [2] concerns the molecule itself. The data set is described as follows: crystal structure; X-ray, 1.75 Å, space group P212121, one dimer in the asymmetric unit; SeMet crystals from 0.2 M Li2SO4 and 20% PEG 3350, 25 °C.

B1: Ketol-acid reductoisomerase from Sulfolobus acidocaldarius (Sac-KARI), His-tagged recombinant (enzyme)
chain: MAKIYTDKDVSLDVIKEKRVAVLGYGSQGRAWALNLRDSGIKVSVGLEREGNSWKQAENDGFKPLRTEEAVRNSDIIIFLLPDMIQRTVYLERVKPYLKEGMDLVFAHGFNIHYRLIEPPSNVDVYMIAPKAPGPIVREYFAKGGGVPALVATYQDHSGKALQKALAVAKAIGATRAGVIETTFKEETETDLFGEQVDLVGGVMQLMRYAFQTLVEAGYQPEVAYFETINEMKLIVDLVYEKGFSGMLTAVSDTAKYGGMTVGKMVIDESVKERMKKALDNIRSGKFAEKWVEEYGKGANTIKEGMKEVDNSTEEKVGRSLRDIILRGKPKS
notes: pET-21a cloned through NdeI/XhoI with the His-tag coding region kept would give a C-terminal His6 tag (surmised); No tag cleavage is described; also called ilvc1559; source: E. coli BL21 (DE3), purified (heating at 65 °C for 30 min, Ni-NTA, gel filtration)
A word on the stoichiometry N: it is the number of molecules, sites or subunits per partner or assembly. Turning to B1, the “stoichiometry N” value in data set [1] turned out to be 2.

B2: SeMet-substituted Sac-KARI (ketol-acid reductoisomerase from Sulfolobus acidocaldarius) (enzyme)
chain: MAKIYTDKDVSLDVIKEKRVAVLGYGSQGRAWALNLRDSGIKVSVGLEREGNSWKQAENDGFKPLRTEEAVRNSDIIIFLLPDMIQRTVYLERVKPYLKEGMDLVFAHGFNIHYRLIEPPSNVDVYMIAPKAPGPIVREYFAKGGGVPALVATYQDHSGKALQKALAVAKAIGATRAGVIETTFKEETETDLFGEQVDLVGGVMQLMRYAFQTLVEAGYQPEVAYFETINEMKLIVDLVYEKGFSGMLTAVSDTAKYGGMTVGKMVIDESVKERMKKALDNIRSGKFAEKWVEEYGKGANTIKEGMKEVDNSTEEKVGRSLRDIILRGKPKS
modifications: selenomethionine in place of methionine (SeMet-substituted)
notes: Ketol-acid reductoisomerase (class I KARI) of Sulfolobus acidocaldarius, gene ilvc1559, same pET21a-ilvc construct as m1, expressed with selenomethionine; also called SeMet-containing Sac-KARI; source: Overnight Express Autoinduction System 2 (Novagen) with L-methionine and SeMet; purified as the native protein (heating, Ni-NTA, gel filtration)
Turning to B2, the binding result in data set [2] is “binds”.
